In the supplement of paper PMC9112550, “Optimization of the antimicrobial peptide Bac7 by deep mutational scanning” (BMC Biology, 2022):

Tested on: Escherichia coli TOP10
Assay: shrunken log2 fold change of peptide-encoding DNA abundance (4.5 h post-induction vs induction); higher = less antimicrobial activity (less host growth inhibition)
Conditions: time post-induction: 4.5 h; library: site-saturation at positions 5, 18, 19, 20
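Further: peptides expressed intracellularly from a pBAD plasmid library in pooled LB shake-flask culture, induced with 0.3% L-arabinose, DNA abundance read by NGS, three biological replicates, DESeq2 with apeglm shrinkage.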

| Sequence | shrunken log2 fold change |
| --- | --- |
| RRIRCRPPRLPRPRPRPNWTPRP | -0.0217 |
| RRIRQRPPRLPRPRPRPFSQPRP | 0.0178 |
| RRIRYRPPRLPRPRPRPCKFPRP | -0.931 |
| RRIRPRPPRLPRPRPRPLLEPRP | 0.059 |
| RRIRTRPPRLPRPRPRPNWLPRP | 0.295 |
| RRIRMRPPRLPRPRPRPQKTPRP | -0.0249 |
| RRIRKRPPRLPRPRPRPCWFPRP | -0.0655 |
| RRIRARPPRLPRPRPRPQSMPRP | -0.0226 |
| RRIRVRPPRLPRPRPRPVSPPRP | -0.146 |
| RRIRTRPPRLPRPRPRPCSKPRP | -0.074 |
| RRIRSRPPRLPRPRPRPMWPPRP | 0.447 |
| RRIRMRPPRLPRPRPRPLALPRP | 0.0404 |
| RRIRHRPPRLPRPRPRPPASPRP | 1.36 |
| RRIRFRPPRLPRPRPRPYWDPRP | -2.48 |
| RRIRARPPRLPRPRPRPAGVPRP | 0.45 |
| RRIRMRPPRLPRPRPRPTLRPRP | 0.334 |
| RRIRIRPPRLPRPRPRPAHEPRP | 0.215 |
| RRIRRRPPRLPRPRPRPPIEPRP | 0.339 |
| RRIRVRPPRLPRPRPRPPMYPRP | -0.366 |
| RRIRFRPPRLPRPRPRPFPRPRP | -0.0288 |

| Sequence | shrunken log2 fold change |
| --- | --- |
| RRIRKRPPRLPRPRPRPMTHPRP | -0.00695 |
| RRIRTRPPRLPRPRPRPCRYPRP | 0.0413 |
| RRIRGRPPRLPRPRPRPWQRPRP | 0.0817 |
| RRIRNRPPRLPRPRPRPLWDPRP | -0.00945 |
| RRIRMRPPRLPRPRPRPTIAPRP | 0.26 |
| RRIRMRPPRLPRPRPRPQQQPRP | 0.246 |
| RRIRFRPPRLPRPRPRPWRIPRP | -0.0447 |
| RRIRRRPPRLPRPRPRPKKRPRP | 0.976 |
| RRIRIRPPRLPRPRPRPRHIPRP | -0.19 |
| RRIRARPPRLPRPRPRPYFEPRP | -0.577 |
| RRIRHRPPRLPRPRPRPQTTPRP | -0.0121 |
| RRIRPRPPRLPRPRPRPPLWPRP | 1.75 |
| RRIRKRPPRLPRPRPRPWGDPRP | 0.499 |
| RRIRKRPPRLPRPRPRPTEPPRP | -0.0305 |
| RRIRMRPPRLPRPRPRPMVIPRP | -0.0665 |
| RRIRMRPPRLPRPRPRPQLRPRP | 0.357 |
| RRIRVRPPRLPRPRPRPQLGPRP | -0.0234 |
| RRIRKRPPRLPRPRPRPRDVPRP | 0.316 |
| RRIRWRPPRLPRPRPRPTLRPRP | 0.0881 |
| RRIRPRPPRLPRPRPRPGNPPRP | -0.043 |

| Sequence | shrunken log2 fold change |
| --- | --- |
| RRIRMRPPRLPRPRPRPFFAPRP | 0.445 |
| RRIRRRPPRLPRPRPRPDFWPRP | 0.647 |
| RRIRRRPPRLPRPRPRPILNPRP | -0.0188 |
| RRIRIRPPRLPRPRPRPEWLPRP | -0.216 |
| RRIRDRPPRLPRPRPRPHRVPRP | -0.0141 |
| RRIRGRPPRLPRPRPRPNNAPRP | 0.0616 |
| RRIRRRPPRLPRPRPRPYGSPRP | -0.00192 |
| RRIRRRPPRLPRPRPRPGRGPRP | 0.805 |
| RRIRCRPPRLPRPRPRPAIVPRP | -0.37 |
| RRIRQRPPRLPRPRPRPHTNPRP | -0.814 |
| RRIRLRPPRLPRPRPRPFRNPRP | -0.0827 |
| RRIRCRPPRLPRPRPRPSQMPRP | -0.278 |
| RRIRTRPPRLPRPRPRPPFPPRP | 0.256 |
| RRIRVRPPRLPRPRPRPWKIPRP | -0.0261 |
| RRIRERPPRLPRPRPRPTGQPRP | -0.0359 |
| RRIRSRPPRLPRPRPRPGLLPRP | -0.0369 |
| RRIRFRPPRLPRPRPRPANVPRP | -0.246 |
| RRIRFRPPRLPRPRPRPYKGPRP | -0.631 |
| RRIRRRPPRLPRPRPRPKMKPRP | 0.316 |
| RRIRCRPPRLPRPRPRPKRLPRP | 0.0169 |
